Results as given in US20200048328A1 (Bristol-Myers Squibb, published 2020).
Each block holds one binder with its values, some of them ahead of it.

Assays:
[1] = target: T1, human serum albumin (human, UniProt P02768 25-609); experiment: SPR, albumin immobilized;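 note: biacore SPR with human, rhesus or mouse serum albumin amine-coupled to the chip (about 1200 RU), 3 min association, 6-10 min dissociation, reference-subtracted traces fitted with a 1:1 model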
T1 construct: immobilized on chips or coated on plates elsewhere; also called HSA; HuSA

[2] = target: T2, rhesus serum albumin (rhesus, UniProt Q28522 17-600); experiment: SPR, albumin immobilized;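 note: biacore SPR with human, rhesus or mouse serum albumin amine-coupled to the chip (about 1200 RU), 3 min association, 6-10 min dissociation, reference-subtracted traces fitted with a 1:1 model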
T2 construct: also called RhSA; Rh-SA

[3] = target: T3, mouse serum albumin (mouse, UniProt P07724 25-608); experiment: SPR, albumin immobilized;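 for KD: biacore SPR with human, rhesus or mouse serum albumin amine-coupled to the chip (about 1200 RU), 3 min association, 6-10 min dissociation, reference-subtracted traces fitted with a 1:1 model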
T3 construct: also called MSA; MuSA

[4] = target: T4, human PCSK9 (human, UniProt Q8NBP7 31-692); experiment: PCSK9:LDLR FRET, competition
T4 construct: also called hPCSK9; huPCSK9

[5] = target: T4, human PCSK9; experiment: PCSK9:EGFA FRET 1, competition
[6] = target: T4, human PCSK9; experiment: PCSK9:EGFA FRET 2, competition
[7] = target: T1, human serum albumin; experiment: direct binding ELISA, albumin coated
[8] = target: T2, rhesus serum albumin; experiment: direct binding ELISA, albumin coated
[9] = target: T3, mouse serum albumin; experiment: direct binding ELISA, albumin coated
[10] = target: T4, human PCSK9; experiment: PCSK9:EGFA FRET human, summary table
[11] = target: T1, human serum albumin; experiment: SPR, albumin immobilized, HBSP pH 7.4
[12] = target: T2, rhesus serum albumin; experiment: SPR, albumin immobilized, HBSP pH 7.4
[13] = target: T3, mouse serum albumin; experiment: SPR, albumin immobilized, HBSP pH 7.4
[14] = target: T1, human serum albumin; experiment: SPR, albumin immobilized, acetate pH 5.5
[15] = target: T2, rhesus serum albumin; experiment: SPR, albumin immobilized, acetate pH 5.5
[16] = target: T3, mouse serum albumin; experiment: SPR, albumin immobilized, acetate pH 5.5
[17] = target: T1, human serum albumin; experiment: SPR, albumin immobilized, acetate pH 7.4
[18] = target: T2, rhesus serum albumin; experiment: SPR, albumin immobilized, acetate pH 7.4
[19] = target: T3, mouse serum albumin; experiment: SPR, albumin immobilized, acetate pH 7.4
[20] = target: T4, human PCSK9; experiment: BLI (Octet), biotinylated PCSK9 on tips, no HSA
[21] = target: T4, human PCSK9; experiment: BLI (Octet), biotinylated PCSK9 on tips, tandem in complex with excess HSA
[22] = target: T5, rat serum albumin (rat, UniProt P02770 25-608); experiment: Albumin KD (37° C.), summary table; rat serum albumin (fourth value of the list)
T5 construct: also called Rat SA; RSA

[23] = target: T1, human serum albumin; experiment: Albumin KD (37° C.), summary table; human serum albumin (first value in the cell)
[24] = target: T3, mouse serum albumin; experiment: Albumin KD (37° C.), summary table; mouse serum albumin (third value of the list)
[25] = target: T6, cynomolgus serum albumin (cynomolgus, UniProt A2V9Z4 25-608); experiment: Albumin KD (37° C.), summary table; cynomolgus serum albumin (second value in the cell)
T6 construct: also called cynoSA; CySA

[26] = target: T7, domain I of HSA (human, UniProt P02768 25-221, limits assumed); experiment: SPR on HSA domains
T7 construct: domain: I; also called HSA domain I

[27] = target: T8, domain III of HSA (human, UniProt P02768 405-609, limits assumed); experiment: SPR on HSA domains
T8 construct: domain: III; also called HuSA domainIII

[28] = target: T3, mouse serum albumin; experiment: SPR, albumin immobilized; remark: listed apart in the source;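 for KD: biacore SPR with human, rhesus or mouse serum albumin amine-coupled to the chip (about 1200 RU), 3 min association, 6-10 min dissociation, reference-subtracted traces fitted with a 1:1 model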
[29] = target: T1, human serum albumin; experiment: SPR, albumin immobilized, HBS-P pH 7.4
[30] = target: T2, rhesus serum albumin; experiment: SPR, albumin immobilized, HBS-P pH 7.4
[31] = target: T3, mouse serum albumin; experiment: SPR, albumin immobilized, HBS-P pH 7.4
[32] = target: T1, human serum albumin; experiment: SPR, albumin immobilized, acetate pH 5.5; remark: listed apart in the source
[33] = target: T2, rhesus serum albumin; experiment: SPR, albumin immobilized, acetate pH 5.5; remark: listed apart in the source
[34] = target: T3, mouse serum albumin; experiment: SPR, albumin immobilized, acetate pH 5.5; remark: listed apart in the source
[35] = target: T1, human serum albumin; experiment: hFcRn:HSA competition AlphaScreen, pH 5.5
[36] = target: T4, human PCSK9; experiment: Octet Red, 37° C., core
[37] = target: T9, cynomolgus PCSK9 (cynomolgus, UniProt A0A7N9D9N8 150-747); experiment: Octet Red, 37° C., core
T9 construct: also called cyno PCSK9

Kd [1]: 73.7 nM
koff [1]: 0.000289 s⁻¹
kon [1]: 3920 M⁻¹ s⁻¹
Kd [2]: 77 nM
koff [2]: 0.000337 s⁻¹
kon [2]: 4380 M⁻¹ s⁻¹
Kd [3]: 26.1 nM
koff [3]: 0.000301 s⁻¹
kon [3]: 11500 M⁻¹ s⁻¹
IC50 [4]: 1.4 nM
IC50 [5]: 9.18 nM
IC50 [6]: 3.09 nM
EC50 [7]: 184 nM
EC50 [8]: 131 nM
EC50 [9]: 15.6 nM
IC50 [10]: 1.5 nM
Kd [11]: 72 nM
koff [11]: 0.000258 s⁻¹
kon [11]: 3580 M⁻¹ s⁻¹
Kd [12]: 78.9 nM
koff [12]: 0.000305 s⁻¹
kon [12]: 3860 M⁻¹ s⁻¹
Kd [13]: 28.2 nM
koff [13]: 0.000336 s⁻¹
kon [13]: 11900 M⁻¹ s⁻¹
Kd [14]: 38.2 nM
koff [14]: 0.000466 s⁻¹
kon [14]: 12200 M⁻¹ s⁻¹
Kd [15]: 97.5 nM
koff [15]: 0.000815 s⁻¹
kon [15]: 8360 M⁻¹ s⁻¹
Kd [16]: 123 nM
koff [16]: 0.00161 s⁻¹
kon [16]: 13100 M⁻¹ s⁻¹
Kd [17]: 74.7 nM
koff [17]: 0.000325 s⁻¹
kon [17]: 4350 M⁻¹ s⁻¹
Kd [18]: 80.7 nM
koff [18]: 0.000364 s⁻¹
kon [18]: 4510 M⁻¹ s⁻¹
Kd [19]: 34.8 nM
koff [19]: 0.000375 s⁻¹
kon [19]: 10800 M⁻¹ s⁻¹
Kd [20]: 0.515 nM
koff [20]: 0.000168 s⁻¹
kon [20]: 336000 M⁻¹ s⁻¹
Kd [21]: 1.55 nM
koff [21]: 0.000305 s⁻¹
kon [21]: 197000 M⁻¹ s⁻¹
Kd [22]: 200 nM
Kd [23]: 57 nM
Kd [24]: 43 nM
Kd [25]: 51 nM
B1: PCSK9-PKE2 tandem Adnectin w/ his tag 4472_C06 (designed binder)
chain: MGVSDVPRDLEVVAATPTSLLISWDAPAEGYGYYRITYGETGGNSPVQEFTVPVSKGTATISGLKPGVDYTITVYAVEFDFPGAGYYHRPISINYRTEPSTPPTPSPSTPPTPSPSGVSDVPRDLEVVAATPTSLLISWDAPAVTVRYYRITYGREVQKYSDLGPLYIYQEFTVPGSKSTATISGLKPGVDYTITVYAVTGSGESPASSKPISINYRTEHHHHHH
notes: also called ATI-1574; ADX_4472_C06

binding result [26]: no binding
binding result [27]: no binding
fold weaker affinity than for human or rhesus albumin [28]: ~10 fold
Kd [29]: 5.58 nM
koff [29]: 0.000368 s⁻¹
kon [29]: 65900 M⁻¹ s⁻¹
Kd [30]: 6.98 nM
koff [30]: 0.000577 s⁻¹
kon [30]: 82700 M⁻¹ s⁻¹
Kd [31]: 67.7 nM
koff [31]: 0.00909 s⁻¹
kon [31]: 134000 M⁻¹ s⁻¹
Kd [32]: 8.82 nM
koff [32]: 0.000898 s⁻¹
kon [32]: 102000 M⁻¹ s⁻¹
Kd [33]: 17.6 nM
koff [33]: 0.00105 s⁻¹
kon [33]: 59600 M⁻¹ s⁻¹
Kd [34]: ~192 nM
koff [34]: 0.0146 s⁻¹
kon [34]: 75900 M⁻¹ s⁻¹
IC50 [35]: 37 nM
B2: PKE2 Adnectin 2270_C01 (designed binder)
chain: MASTSGVPRDLEVVAATPTSLLISWDAPAVTVRYYRITYGWQVQMYSDWGPLYIYKEFTVPGSKSTATISGLKPGVDYTITVYAVTGSGESPASSKPISINYRTEGDKPSQHHHHHH
notes: 10Fn3 domain with modified CD loop; the entry includes the His6 tail

Kd [36]: 0.14 nM
Kd [37]: 39 nM
IC50 [4]: 2.3 nM
IC50 [5]: 19.7 nM
IC50 [6]: 10.6 nM
B3: PCSK9 Adnectin 2382_D09 (designed binder)
chain: MGVSDVPRDLEVVAATPTSLLISWDAPAEGYGYYRITYGETGGNSPVQEFTVPVSKGTATISGLKPGVDYTITVYAVEFDFPGAGYYHRPISINYRT
